The target in data set [1] is T1, TUT1_ΔN (form-II crystal) (Homo sapiens, UniProt Q9H6E5, DEL235-304/C372A/C399A/C415A/C501A/C504S/C574A/DEL651-750).
T1 construct: gene TUT1; palm, fingers and KA-1 domains; residues 1-140, 235-304 and 651-750 removed; cysteine mutations (order of the two mutation sets read as form-I, form-II); pET22b His tag, E. coli
T1 sequence (Q9H6E5 with tags, fused parts or gaps DEL235-304/C372A/C399A/C415A/C501A/C504S/C574A/DEL651-750): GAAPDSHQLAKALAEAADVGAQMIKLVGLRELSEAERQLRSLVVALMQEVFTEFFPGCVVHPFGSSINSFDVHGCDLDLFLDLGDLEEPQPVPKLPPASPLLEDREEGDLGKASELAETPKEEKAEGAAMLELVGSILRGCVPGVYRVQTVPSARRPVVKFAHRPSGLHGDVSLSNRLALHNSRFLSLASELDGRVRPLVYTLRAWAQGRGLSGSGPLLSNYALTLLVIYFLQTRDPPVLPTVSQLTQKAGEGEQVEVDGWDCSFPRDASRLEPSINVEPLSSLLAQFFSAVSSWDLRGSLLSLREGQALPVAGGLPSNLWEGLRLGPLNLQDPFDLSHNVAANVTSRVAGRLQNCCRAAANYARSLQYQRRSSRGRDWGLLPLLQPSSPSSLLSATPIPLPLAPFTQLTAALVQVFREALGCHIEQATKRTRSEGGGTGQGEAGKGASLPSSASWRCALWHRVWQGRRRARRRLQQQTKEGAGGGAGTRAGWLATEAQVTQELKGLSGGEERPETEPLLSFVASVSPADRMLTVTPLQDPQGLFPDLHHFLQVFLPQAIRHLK
Briefly: X-ray crystal structure (soak), […] Å. The format is binding. Conditions: Mg2+; 2 mM UTP, 4 mM MgCl2; incoming nucleotide site.

The target in the next data set is T2, TUT1_ΔN (form-I crystal) (Homo sapiens, UniProt Q9H6E5, DEL235-304/C372A/C415A/C501A/C504S/DEL651-750).
T2 construct: gene TUT1; palm, fingers and KA-1 domains; residues 1-140, 235-304 and 651-750 removed; cysteine mutations (order of the two mutation sets read as form-I, form-II); pET22b His tag, E. coli
T2 sequence (Q9H6E5 with tags, fused parts or gaps DEL235-304/C372A/C415A/C501A/C504S/DEL651-750): T1 sequence (Q9H6E5 with tags, fused parts or gaps DEL235-304/C372A/C399A/C415A/C501A/C504S/C574A/DEL651-750) with A189C, A364C
The data set is described as follows: X-ray crystal structure (soak), […] Å. The class given is binding. Conditions: Ba2+; 2 mM UTP, 4 mM BaCl2; incoming nucleotide site.

Data set [2] concerns the target T1, TUT1_ΔN (form-II crystal). Briefly: X-ray crystal structure (soak), […] Å. The class given is binding. The conditions noted are these: Mg2+; 10 mM ATP, 20 mM MgCl2; incoming nucleotide site.
Substrate in data set [3]: O=c1ccn([C@@H]2O[C@H](COP(=O)(O)OP(=O)(O)OP(=O)(O)O)[C@@H](O)[C@H]2O)c(=O)[nH]1
The data set is described as follows: purified protein. Conditions: co-substrate 1 μM U6 snRNA-u4, 10 mM MgCl2, 100 mM NaCl, pH 8.5, 37 °C. The class given is biochemical, Homo sapiens.

Substrate in data set [4]: Nc1ncnc2c1ncn2[C@@H]1O[C@H](COP(=O)(O)OP(=O)(O)OP(=O)(O)O)[C@@H](O)[C@H]1O
The data set is described as follows: purified protein. The format is biochemical, Homo sapiens. Conditions: co-substrate 1 μM U6 snRNA-u4, 10 mM MgCl2, 100 mM NaCl, pH 8.5, 37 °C.

Changes are numbered by the printed parent chain.

Usually Km stands for the substrate concentration at which the rate is half of its maximum.

Regarding `O=c1ccn([C@@H]2O[C@H](COP(=O)(O)OP(=O)(O)OP(=O)(O)O)[C@@H](O)[C@H]2O)c(=O)[nH]1` [UTP], in data set [1], the “X-ray crystal structure (soak), 2.7 Å” value is “form-II TUT1_ΔN with UTP and ATP soaked in were also analysed”. Further, at TUT1_ΔN (form-I crystal), the “X-ray crystal structure (soak), 2.95 Å” value was “The form-I TUT1_ΔN structure complexed with UTP (soaked in) was initially solved”.

In the case of `Nc1ncnc2c1ncn2[C@@H]1O[C@H](COP(=O)(O)OP(=O)(O)OP(=O)(O)O)[C@@H](O)[C@H]1O` [ATP], the “X-ray crystal structure (soak), 2.8 Å” value in data set [2] is “form-II TUT1_ΔN with UTP and ATP soaked in were also analysed”.

B1: human TUT1 (full-length, wild-type) (Homo sapiens) (protein)
chain: MAAVDSDVESLPRGGFRCCLCHVTTANRPSLDAHLGGRKHRHLVELRAARKAQGLRSVFVSGFPRDVDSAQLSEYFLAFGPVASVVMDKDKGVFAIVEMGDVGAREAVLSQSQHSLGGHRLRVRPREQKEFQSPASKSPKGAAPDSHQLAKALAEAADVGAQMIKLVGLRELSEAERQLRSLVVALMQEVFTEFFPGCVVHPFGSSINSFDVHGCDLDLFLDLGDLEEPQPVPKAPESPSLDSALASPLDPQALACTPASPPDSQPPASPQDSEALDFETPSSSLAPQTPDSALASETLASPQSLPPASPLLEDREEGDLGKASELAETPKEEKAEGAAMLELVGSILRGCVPGVYRVQTVPSARRPVVKFCHRPSGLHGDVSLSNRLALHNSRFLSLCSELDGRVRPLVYTLRCWAQGRGLSGSGPLLSNYALTLLVIYFLQTRDPPVLPTVSQLTQKAGEGEQVEVDGWDCSFPRDASRLEPSINVEPLSSLLAQFFSCVSCWDLRGSLLSLREGQALPVAGGLPSNLWEGLRLGPLNLQDPFDLSHNVAANVTSRVAGRLQNCCRAAANYCRSLQYQRRSSRGRDWGLLPLLQPSSPSSLLSATPIPLPLAPFTQLTAALVQVFREALGCHIEQATKRTRSEGGGTGESSQGGTSKRLKVDGQKNCCEEGKEEQQGCAGDGGEDRVEEMVIEVGEMVQDWAMQSPGQPGDLPLTTGKHGAPGEEGQPSHAALAERGPKGHEAAQEWSQGEAGKGASLPSSASWRCALWHRVWQGRRRARRRLQQQTKEGAGGGAGTRAGWLATEAQVTQELKGLSGGEERPETEPLLSFVASVSPADRMLTVTPLQDPQGLFPDLHHFLQVFLPQAIRHLK
notes: full-length 1-874, synthetic codon-optimised gene, pET22b (His tag, no cleavage told), E. coli BL21(DE3), Ni-NTA/heparin/Superdex 200
On to B1, for which the Michaelis-Menten constant (Km) in “purified protein [3]” is 59 µM; in “purified protein [4]” it was 1,380 μM. For the same molecule, the results for the kcat in “purified protein [3]” and in the data set “purified protein [4]” were 0.059 s^–1 and 0.002 s^–1, respectively.

The values are drawn from PMC5467268, “Crystal structures of U6 snRNA-specific terminal uridylyltransferase” (Nature Communications, 2017).
